# Laboratory results as given in patent US20240141059A1 (Bristol-Myers Squibb, published 2024).
# “And” between values parts separate entries of the source, which are not always exact repeats. Identical values can stand only once. Like-named read-outs stand apart in the source and are kept apart here.
# T1: human GITR (human, UniProt Q9Y5U5 26-241)
# T1 sequence (looked up): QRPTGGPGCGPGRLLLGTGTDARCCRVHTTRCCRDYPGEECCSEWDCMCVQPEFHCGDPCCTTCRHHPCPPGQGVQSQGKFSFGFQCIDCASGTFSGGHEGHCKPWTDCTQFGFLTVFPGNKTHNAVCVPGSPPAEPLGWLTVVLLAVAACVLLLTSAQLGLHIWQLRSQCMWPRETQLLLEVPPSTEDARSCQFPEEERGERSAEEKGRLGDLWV
# T2: human CD73 on cells (human, UniProt P21589 27-549)
# T2 sequence (looked up): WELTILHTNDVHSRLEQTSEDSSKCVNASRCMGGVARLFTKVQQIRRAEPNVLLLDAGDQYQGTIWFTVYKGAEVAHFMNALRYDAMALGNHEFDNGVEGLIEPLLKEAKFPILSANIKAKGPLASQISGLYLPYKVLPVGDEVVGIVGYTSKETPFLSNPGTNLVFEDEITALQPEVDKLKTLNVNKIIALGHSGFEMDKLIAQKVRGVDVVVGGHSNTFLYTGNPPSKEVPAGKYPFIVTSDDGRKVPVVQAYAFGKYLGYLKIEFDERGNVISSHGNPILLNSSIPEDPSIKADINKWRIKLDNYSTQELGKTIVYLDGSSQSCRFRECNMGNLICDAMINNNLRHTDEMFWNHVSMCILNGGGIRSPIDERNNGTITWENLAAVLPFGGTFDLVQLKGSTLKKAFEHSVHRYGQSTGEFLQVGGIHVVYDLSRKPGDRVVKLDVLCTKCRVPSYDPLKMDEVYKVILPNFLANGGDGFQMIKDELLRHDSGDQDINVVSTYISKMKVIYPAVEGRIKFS
# T3: hCD73-his (human, UniProt P21589 26-546)
# T3 construct: range 26-546; also called full length extracellular domain of human-CD73
# T3 sequence (looked up): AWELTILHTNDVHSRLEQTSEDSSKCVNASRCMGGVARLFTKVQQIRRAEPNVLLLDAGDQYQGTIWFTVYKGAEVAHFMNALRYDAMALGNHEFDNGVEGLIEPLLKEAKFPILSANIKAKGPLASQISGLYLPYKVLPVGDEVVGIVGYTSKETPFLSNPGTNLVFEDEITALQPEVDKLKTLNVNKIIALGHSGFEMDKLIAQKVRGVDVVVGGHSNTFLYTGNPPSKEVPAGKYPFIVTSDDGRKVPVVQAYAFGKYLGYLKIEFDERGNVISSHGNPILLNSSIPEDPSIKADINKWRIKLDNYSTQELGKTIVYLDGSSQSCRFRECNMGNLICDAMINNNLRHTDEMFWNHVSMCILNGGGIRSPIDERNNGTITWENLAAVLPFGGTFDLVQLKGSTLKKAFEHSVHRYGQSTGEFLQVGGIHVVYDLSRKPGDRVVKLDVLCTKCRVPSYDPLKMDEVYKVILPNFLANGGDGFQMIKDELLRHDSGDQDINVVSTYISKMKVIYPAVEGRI
# T4: N-hCD73-his (human, UniProt P21589 26-336, limits assumed)
# T4 construct: monomeric in solution by SEC-MALS; also called N-terminal domain of hCD73
# T4 sequence (looked up): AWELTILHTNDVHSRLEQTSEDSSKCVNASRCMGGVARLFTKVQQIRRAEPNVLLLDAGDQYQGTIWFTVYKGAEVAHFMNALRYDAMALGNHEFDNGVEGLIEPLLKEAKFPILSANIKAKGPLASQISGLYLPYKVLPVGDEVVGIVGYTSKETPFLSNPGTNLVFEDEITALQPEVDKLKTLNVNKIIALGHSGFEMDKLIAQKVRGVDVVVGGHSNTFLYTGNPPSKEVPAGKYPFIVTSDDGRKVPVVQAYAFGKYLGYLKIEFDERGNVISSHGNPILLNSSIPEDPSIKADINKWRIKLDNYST
# What was measured:
# [1] = target: T1, human GITR; assay: cell-based or functional assay
# [2] = target: T2, human CD73 on cells; assay: cell-based or functional assay
# [3] = target: T2, human CD73 on cells; assay: cell-based or functional assay; remark: listed apart in the source
# [4] = target: T3, hCD73-his; assay: SEC of equimolar mAb + hCD73-his
# Experimental: (§1) The oligomeric state of CD73/antibody complexes were examined by size-exclusion chromatography coupled to an in-line multi-angle light scattering detector (SEC-MALS). Isocratic separations were performed on a Shodex PROTEIN KW-803 column connected to an Prominence Shimadzu UFLC in buffer containing 200 mM K₂HPO₄, 150 mM NaCl, pH 6.8, containing 0.02% Na azide (0.1 μm filtered) running at 0.5 mL/min. Samples were injected onto the column using a SIL-20AC Prominence Shimadzu® autosampler, and data were obtained from three online detectors connected in series: a Prominence SPD-20AD diode array UV/vis spectrophotometer followed by a Wyatt miniDAWN™ TREOS Multi-Angle Light Scattering Detector then a Wyatt Optilab T-rEX Refractive Index Detector® instrument. Data were collected and analyzed using Astra® (Wyatt) and Labsolutions® (Shimadzu) software.
# CD73.4 antibodies having the heavy chain constant regions set forth in Table 14 were also tested for formation of high molecular weight complexes by SEC-MALS and DLS experiments, as described in Example 3.
# [5] = target: T3, hCD73-his; assay: SEC-MALS, target:mAb 1:1, 2.5 uM + 2.5 uM
# Experimental: (§2) The structure and oligomeric state of CD73/antibody complexes in solution were examined by SEC-MALS and DLS.
# as §1
# [6] = target: T2, human CD73 on cells; assay: cell-based or functional assay; remark: listed apart in the source
# [7] = target: T4, N-hCD73-his; assay: SPR, mAb captured on protein A
# Experimental: The affinity of the antibodies for human CD73 was measured to determine whether the change of the constant region affects them. The affinities were determined by Surface Plasmon Resonance (SPR) as follows. […] For these experiments, protein A (Pierce) was immobilized to a density of 3000-4000 RU on flow cells 1˜4 of a CMS sensor chip (GE Healthcare) using standard ethyl(dimethylaminopropyl) carbodiimide (EDC)/N-hydroxysuccinimide (NHS) chemistry, with ethanolamine blocking, in a running buffer of 0.01 M HEPES pH 7.4, 0.15 M NaCl, 3 mM EDTA, 0.005% v/v tween 20. […] The running buffer for the kinetic experiments was 10 mM sodium phosphate, 130 mM sodium chloride, 0.05% tween 20, pH 7.1. The surfaces were regenerated after each cycle using two 30 s pulses of 10 mM glycine pH 1.5 at a flow rate of 30 μl/min. Sensogram data was double-referenced and then fitted to a 1:1 Langmuir model using Biacore® T100 evaluation software v2.0.4, to determine the association rate constant (ka), the dissociation rate constant (kd), and the equilibrium dissociation constant (KD).
# [8] = target: T2, human CD73 on cells; assay: cell-based or functional assay; remark: listed apart in the source
# [9] = target: T3, hCD73-his; assay: DLS, target:mAb 1:1, 2.5 uM + 2.5 uM; unit from the text
# Experimental: as §2
# Dynamic light scattering (DLS) studies were performed on a Wyatt DynaPro® plate reader in 384 well plates at 25° C. Experimental parameters were 20 acquisitions of 5 s each per measurement, and measurements were recorded in quadruplicate, with the average and standard deviation reported. Intensity autocorrelation functions were fitted using the “Regularization” algorithm in the Dynamics® software (Wyatt Technologies®).
binder,measurement,setting,value
"GITR.6.G2 (antibody, human IgG2, kappa) heavy: QVQLVESGGGVVQPGRSLRLSCAASGFTFSSYGMHWVRQAPGKGLEWVAVIWYEGSNKYYADSVKGRFTISRDNSKNTLYLQMNSLRAEDTAVYYCARGGSMVRGDYYYGMDVWGQGTTVTVSSASTKGPSVFPLAPCSRSTSESTAALGCLVKDYFPEPVTVSWNSGALTSGVHTFPAVLQSSGLYSLSSVVTVPSSNFGTQTYTCNVDHKPSNTKVDKTVERKCCVECPPCPAPPVAGPSVFLFPPKPKDTLMISRTPEVTCVVVDVSHEDPEVQFNWYVDGVEVHNAKTKPREEQFNSTFRVVSVLTVVHQDWLNGKEYKCKVSNKGLPAPIEKTISKTKGQPREPQVYTLPPSREEMTKNQVSLTCLVKGFYPSDIAVEWESNGQPENNYKTTPPMLDSDGSFFLYSKLTVDKSRWQQGNVFSCSVMHEALHNHYTQKSLSLSPGK light: not shown","NFKB signaling (phospho-p65), CD4+ T cells, EC50",[1],12.8 nM
same,"NFKB signaling (phospho-p65), CD4+ T cells, Emax",[1],69%
same,"NFKB signaling (phospho-p65), CD8+ T cells, EC50",[1],9 nM
same,"NFKB signaling (phospho-p65), CD8+ T cells, Emax",[1],85%
"CD73.4-IgG2-C219S (antibody, also called CD73.4-IgG2CS; CD73.4-IgG2.3) heavy: QVQLVESGGGVVQPGRSLRLSCAASGFTFSNYGMHWVRQAPGKGLEWVAVILYDGSNKYYPDSVKGRFTISRDNSKNTLYLQMNSLRAEDTAVYYCARGGSSWYPDSFDIWGQGTMVTVSSASTKGPSVFPLAPCSRSTSESTAALGCLVKDYFPEPVTVSWNSGALTSGVHTFPAVLQSSGLYSLSSVVTVPSSNFGTQTYTCNVDHKPSNTKVDKTVERKSCVECPPCPAPPVAGPSVFLFPPKPKDTLMISRTPEVTCVVVDVSHEDPEVQFNWYVDGVEVHNAKTKPREEQFNSTFRVVSVLTVVHQDWLNGKEYKCKVSNKGLPAPIEKTISKTKGQPREPQVYTLPPSREEMTKNQVSLTCLVKGFYPSDIAVEWESNGQPENNYKTTPPMLDSDGSFFLYSKLTVDKSRWQQGNVFSCSVMHEALHNHYTQKSLSLSPG light: not shown","% internalization, Calu6 cells",[2],88%
same,"% internalization, H228 cells",[2],94%
same,"% internalization, H2030 cells",[2],89%
same,"% internalization, HCC15 cells",[2],94%
same,"internalization T1/2, Calu6 cells",[2],6.5 min
same,"internalization T1/2, H228 cells",[2],13.8 min
same,"internalization T1/2, H2030 cells",[2],3.7 min
same,"internalization T1/2, HCC15 cells",[2],3.1 min
same,"internalization T1/2, Calu6",[3],36 min
same,"internalization T1/2, NCI-H292",[3],16.6 min
same,"internalization Ymax, Calu6",[3],75.6%
same,"internalization Ymax, NCI-H292",[3],78.4%
same,UV % Peak1 (<12.9 min),[4],37%
same,UV % Peak3 (15.1-16.7 min),[4],7.7%
same,UV % Peak4 (16.7-19.3 min),[4],28.6%
same,UV % Peak5 (>19.3 min),[4],2.9%
same,MW Peak 1,[5],3400 kDa
same,MW Peak 2,[5],970 kDa
same,MW Peak 3,[5],480 kDa
"11F11 (antibody, human IgG2, kappa, V domains shown, hybridoma derived anti-CD73 antibody, IgG2 constant region; also called 11F11 (IgG2)) VH: QVQLVESGGGVVQPGRSLRLSCATSGFTFSNYGMHWVRQAPGKGLEWVAVILYDGSNKYYPDSVKGRFTISRDNSKNTLYLQMNSLRAEDTAVYYCARGGSSWYPDSFDIWGQGTMVTVSS VL: DIQMTQSPSSLSASVGDRVTITCRASQGISSWLAWYQQKPEKAPKSLIYAASSLQSGVPSRFSGSGSGTDFTLTISSLQPEDFATYYCQQYNSYPLTFGGGTKVEIKR","internalization EC50, Calu6 cells, 2 h",[6],0.58 nM
same,"internalization Ymax (% of 100 nM 11F11), Calu6 cells",[6],98%
same,Kd,[7],1.6 nM and 0.56 nM
same,koff,[7],0.00042 s⁻¹ and 0.00016 s⁻¹
same,kon,[7],260000 M⁻¹ s⁻¹ and 290000 M⁻¹ s⁻¹
"CD73.4-IgG2-C219S-IgG1.1f (antibody, also called CD73.4-IgG2.3G1.1f-KH; CD73.4-IgG2CS-IgG1.1f) heavy: QVQLVESGGGVVQPGRSLRLSCAASGFTFSNYGMHWVRQAPGKGLEWVAVILYDGSNKYYPDSVKGRFTISRDNSKNTLYLQMNSLRAEDTAVYYCARGGSSWYPDSFDIWGQGTMVTVSSASTKGPSVFPLAPCSRSTSESTAALGCLVKDYFPEPVTVSWNSGALTSGVHTFPAVLQSSGLYSLSSVVTVPSSNFGTQTYTCNVDHKPSNTKVDKTVERKSCVECPPCPAPPVAGPSVFLFPPKPKDTLMISRTPEVTCVVVDVSHEDPEVKFNWYVDGVEVHNAKTKPREEQYNSTYRVVSVLTVLHQDWLNGKEYKCKVSNKALPSSIEKTISKAKGQPREPQVYTLPPSREEMTKNQVSLTCLVKGFYPSDIAVEWESNGQPENNYKTTPPVLDSDGSFFLYSKLTVDKSRWQQGNVFSCSVMHEALHNHYTQKSLSLSPGK light: not shown","internalization T1/2, Calu6",[3],34 min
same,"internalization T1/2, NCI-H292",[3],15.8 min
same,"internalization Ymax, Calu6",[3],76.8%
same,"internalization Ymax, NCI-H292",[3],77.6%
same,"internalization T1/2, Calu6",[8],21 min
same,"internalization T1/2, NCI-H292",[8],16.6 min
same,"internalization Ymax, Calu6",[8],81%
same,"internalization Ymax, NCI-H292",[8],90.3%
same,MW Peak 1,[5],3600 kDa
same,MW Peak 2,[5],1100 kDa
same,MW Peak 3,[5],580 kDa
same,Rh,[9],31.2 nm
